This note sets out measurements from IntAct's records for PubMed 12713445.

One test addresses dlg2_human DLG2 (UniProt Q15700).
The target of the next test is dlg3_human DLG3 (UniProt Q92796).
UniProt Q92796, sequence (Q92796 whole entry): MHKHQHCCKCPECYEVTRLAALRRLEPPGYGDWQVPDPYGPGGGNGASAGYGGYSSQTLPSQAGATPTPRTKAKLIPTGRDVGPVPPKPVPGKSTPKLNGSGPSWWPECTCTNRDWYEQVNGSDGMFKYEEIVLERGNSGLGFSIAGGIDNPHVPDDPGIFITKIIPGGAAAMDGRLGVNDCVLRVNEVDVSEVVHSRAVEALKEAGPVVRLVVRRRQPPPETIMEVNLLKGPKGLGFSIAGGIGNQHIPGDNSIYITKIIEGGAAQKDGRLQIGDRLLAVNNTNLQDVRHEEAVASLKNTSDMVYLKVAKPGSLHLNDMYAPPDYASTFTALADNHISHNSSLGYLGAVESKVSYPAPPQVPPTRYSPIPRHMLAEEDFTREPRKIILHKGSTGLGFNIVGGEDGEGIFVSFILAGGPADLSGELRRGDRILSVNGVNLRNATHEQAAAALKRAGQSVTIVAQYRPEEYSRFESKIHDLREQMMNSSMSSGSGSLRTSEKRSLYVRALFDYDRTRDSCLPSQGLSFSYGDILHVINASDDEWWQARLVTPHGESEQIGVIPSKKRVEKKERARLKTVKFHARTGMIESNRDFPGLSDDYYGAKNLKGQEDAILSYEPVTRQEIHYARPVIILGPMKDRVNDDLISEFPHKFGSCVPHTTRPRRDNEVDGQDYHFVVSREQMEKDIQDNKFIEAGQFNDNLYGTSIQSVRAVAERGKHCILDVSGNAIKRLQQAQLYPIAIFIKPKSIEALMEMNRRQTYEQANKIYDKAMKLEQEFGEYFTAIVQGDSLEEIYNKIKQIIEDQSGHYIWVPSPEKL

UniProt Q15700, sequence (Q15700 whole entry, looked up): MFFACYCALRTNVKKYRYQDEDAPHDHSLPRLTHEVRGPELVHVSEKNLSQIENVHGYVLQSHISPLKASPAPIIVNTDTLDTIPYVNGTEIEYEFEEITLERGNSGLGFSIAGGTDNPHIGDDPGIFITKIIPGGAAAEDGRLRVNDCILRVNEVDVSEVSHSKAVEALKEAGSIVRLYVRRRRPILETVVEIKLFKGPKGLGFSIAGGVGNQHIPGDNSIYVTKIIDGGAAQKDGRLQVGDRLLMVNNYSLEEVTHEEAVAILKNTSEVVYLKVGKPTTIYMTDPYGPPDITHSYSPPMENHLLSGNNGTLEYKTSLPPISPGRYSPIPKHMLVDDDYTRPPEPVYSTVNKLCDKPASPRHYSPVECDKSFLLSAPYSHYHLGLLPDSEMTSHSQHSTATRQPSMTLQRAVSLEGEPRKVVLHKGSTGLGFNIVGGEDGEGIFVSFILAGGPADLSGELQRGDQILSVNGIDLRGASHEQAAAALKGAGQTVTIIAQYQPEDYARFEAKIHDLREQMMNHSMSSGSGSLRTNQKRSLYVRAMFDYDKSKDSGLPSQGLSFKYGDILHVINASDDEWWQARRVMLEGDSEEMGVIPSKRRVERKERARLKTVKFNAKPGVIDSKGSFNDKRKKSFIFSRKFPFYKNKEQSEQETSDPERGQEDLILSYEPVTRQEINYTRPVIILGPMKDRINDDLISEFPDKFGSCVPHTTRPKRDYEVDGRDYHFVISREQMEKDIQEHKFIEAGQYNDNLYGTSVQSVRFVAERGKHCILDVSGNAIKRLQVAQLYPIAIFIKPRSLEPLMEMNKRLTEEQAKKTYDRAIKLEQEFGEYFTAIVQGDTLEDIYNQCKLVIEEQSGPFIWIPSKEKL

In the case of “Low-density lipoprotein receptor-related protein 2 (Homo sapiens), P98164 S4653V;V4655S”, the “effect of a mutation on the interaction” value in the test with dlg2_human DLG2 and in the test with dlg3_human DLG3 was “disrupting interaction strength” each time.
